In data set [1] the target is T1, mouse non-amyloidogenic IAPP(20-29) core (ΔmIAPP).
T1 chain: SNNLGPVLPP

Data set [2] has as its target T2, fibrin peptide 87 (FP10), non-amyloid fragment of human fibrin α-chain(148-157).
T2 chain: KRLEVDIDIK

Data set [3] deals with human amyloid-β peptide Aβ(1-40).
Data set [4] has as its target T3, amyloid fragment of transthyretin (TTR11).
T3 chain: YTIAALLSPYS

The target of data set [5] is T4, laminin α1-chain(2097-2108) amyloid core peptide (LAM12).
T4 chain: AASIKVAVSADR

The target in data set [6] is T5, fibrin peptide 85 (FP13), human fibrin α-chain fragment α148-160.
T5 chain: KRLEVDIDIKIRS

Data set [7] has as its target FP13 K157G.
Data set [8] concerns the target Aβ(1-40) E22Q.
In data set [9] the target is T6, β2-glycoprotein I purified from fresh human plasma (in solution), P02749.
T6 chain: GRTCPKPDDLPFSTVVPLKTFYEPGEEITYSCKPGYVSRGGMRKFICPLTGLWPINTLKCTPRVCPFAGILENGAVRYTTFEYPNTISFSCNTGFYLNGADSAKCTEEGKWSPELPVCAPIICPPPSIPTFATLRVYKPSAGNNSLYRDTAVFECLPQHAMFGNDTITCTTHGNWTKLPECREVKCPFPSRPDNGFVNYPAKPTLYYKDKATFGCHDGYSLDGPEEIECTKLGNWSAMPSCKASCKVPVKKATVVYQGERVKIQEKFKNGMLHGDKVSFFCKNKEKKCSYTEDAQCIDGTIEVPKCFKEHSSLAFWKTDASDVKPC

In data set [10] the target is T7, human islet amyloid polypeptide, full length (fl-hIAPP).
T7 chain: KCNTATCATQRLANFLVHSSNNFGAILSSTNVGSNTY

Data set [11] has as its target T8, fibrin peptide 86 (FP12).
T8 chain: KRLEVDIDIKIR

Data set [12] deals with T9, recombinant human β2-glycoprotein I (expressed in insect cells), P02749.
T9 chain: T6 chain

In data set [13] the target is endostatin (precipitated, cross-β structure-containing).
The target of data set [14] is T10, human IAPP amyloid core fragment (ΔhIAPP).
T10 chain: SNNFGAILSS

B1: human factor XII (Hageman factor) (protein)
chain: IPPWEAPKEHKYKAEEHTVVLTVTGEPCHFPFQYHRQLYHKCTHKGRPGPQPWCATTPNFDQDQRWGYCLEPKKVKDHCSKHSPCQKGGTCVNMPSGPHCLCPQHLTGNHCQKEKCFEPQLLRFFHKNEIWYRTEQAAVARCQCKGPDAHCQRLASQACRTNPCLHGGRCLEVEGHRLCHCPVGYTGAFCDVDTKASCYDGRGLSYRGLARTTLSGAPCQPWASEATYRNVTAEQARNWGLGGHAFCRNPDNDIRPWCFVLNRDRLSWEYCDLAQCQTPTQAAPPTPVSPRLHVPLMPAQPAPPKPQPTTRTPPQSQTPGALPAKREQPPSLTRNGPLSCGQRLRKSLSSMTRVVGGLVALRGAHPYIAALYWGHSFCAGSLIAPCWVLTAAHCLQDRPAPEDLTVVLGQERRNHSCEPCQTLAVRSYRLHEAFSPVSYQHDLALLRLQEDADGSCALLSPYVQPVCLPSGAARPSETTLCQVAGWGHQFEGAEEYASFLQEAQVPFLSLERCSAPDVHGSSILPGMLCAGFLEGGTDACQGDSGGPLVCEDQAAERRLTLQGIISWGSGCGDRNKPGVYTDVAYYLAWIREHTVS
For B1, the “factor XII activation (Chromozym PK conversion via kallikrein)” value is “non-amyloid controls FP10 and mIAPP do not activate factor XII” in data set [1]; “non-amyloid controls FP10 and mIAPP do not activate factor XII” in data set [2]; “amyloid-like peptide aggregates of FP13 and Aβ stimulate the activation of factor XII” in [3]; “cross-β structure-rich peptides LAM12 and TTR11 stimulate factor XII activation, to a similar extent as kaolin” in data set [4]; “cross-β structure-rich peptides LAM12 and TTR11 stimulate factor XII activation, to a similar extent as kaolin” in [5]; “amyloid-like peptide aggregates of FP13 and Aβ stimulate the activation of factor XII” in data set [6]. In addition, the “auto-activation of factor XII (S-2222 conversion)” value is “FP13 K157G and Hb-AGE have a potency to induce auto-activation that is similar to the established surface activator DXS500k” in data set [7]; “the potency of the Aβ(1-40) E22Q is somewhat lower” in data set [8].

B2: recombinant tissue-type plasminogen activator (tPA) (protein)
chain: SYQVICRDEKTQMIYQQHQSWLRPVLRSNRVEYCWCNSGRAQCHSVPVKSCSEPRCFNGGTCQQALYFSDFVCQCPEGFAGKCCEIDTRATCYEDQGISYRGTWSTAESGAECTNWNSSALAQKPYSGRRPDAIRLGLGNHNYCRNPDRDSKPWCYVFKAGKYSSEFCSTPACSEGNSDCYFGNGSAYRGTHSLTESGASCLPWNSMILIGKVYTAQNPSAQALGLGKHNYCRNPDGDAKPWCHVLKNRRLTWEYCDVPSCSTCGLRQYSQPQFRIKGGLFADIASHPWQAAIFAKHRRSPGERFLCGGILISSCWILSAAHCFQERFPPHHLTVILGRTYRVVPGEEEQKFEVEKYIVHKEFDDDTYDNDIALLQLKSDSSRCAQESSVVRTVCLPPADLQLPDWTECELSGYGKHEALSPFYSERLKEAHVRLYPSSRCTSQHLLNRTVTDNMLCAGDTRSGGPQANLHDACQGDSGGPLVCLNDGRMTLVGIISWGLGCGQKDVPGVYTKVTNYLDWIRDNMRP
Consider B2, for which the “tPA-mediated conversion of plasminogen to plasmin (S-2251 conversion)” value in data set [9] was “Recombinant β2gpi and not β2gpi purified from fresh plasma, stimulates effectively the tPA-mediated conversion of plasminogen to plasmin”; in [12], “Recombinant β2gpi and not β2gpi purified from fresh plasma, stimulates effectively the tPA-mediated conversion of plasminogen to plasmin”. Also, the tPA-mediated plasminogen activation result is “Both full-length (fl-hIAPP) and truncated amyloid core (Δ-hIAPP), but not mouse IAPP (Δ-mIAPP), stimulate tPA-mediated plasminogen activation” in data set [10]; “but not mouse IAPP (Δ-mIAPP)” in data set [1]; “Both full-length (fl-hIAPP) and truncated amyloid core (Δ-hIAPP), but not mouse IAPP (Δ-mIAPP), stimulate tPA-mediated plasminogen activation” in data set [14]. Moreover, the “tPA-mediated plasmin formation (plasminogen activation assay)” value in data set [11] is “peptides 85 and 86, both containing a cross-β structure, do stimulate the formation of plasmin by tPA”; in [13], “stimulating activity of cross-β structure-containing endostatin on tPA-mediated plasmin formation”; in data set [2], “peptide 87, which lacks a cross-β structure, does not”; in data set [6], “peptides 85 and 86, both containing a cross-β structure, do stimulate the formation of plasmin by tPA”. The “activation of plasminogen by tPA (S-2251 conversion)” value in data set [3] is “Aβ potently stimulates the activation of plasminogen by tPA”.
